B1: Serine/threonine-protein kinase TBK1 (Mus musculus), Q9WUN2 (parent)
chain: MQSTSNHLWLLSDILGQGATANVFRGRHKKTGDLYAVKVFNNISFLRPVDVQMREFEVLKKLNHKNIVKLFAIEEETTTRHKVLIMEFCPCGSLYTVLEEPSNAYGLPESEFLIVLRDVVGGMNHLRENGIVHRDIKPGNIMRVIGEDGQSVYKLTDFGAARELEDDEQFVSLYGTEEYLHPDMYERAVLRKDHQKKYGATVDLWSVGVTFYHAATGSLPFRPFEGPRRNKEVMYKIITGKPSGAISGVQKAENGPIDWSGDMPLSCSLSQGLQALLTPVLANILEADQEKCWGFDQFFAETSDVLHRMVIHVFSLQHMTAHKIYIHSYNTAAVFHELVYKQTKIVSSNQELIYEGRRLVLELGRLAQHFPKTTEENPIFVTSREQLNTVGLRYEKISLPKIHPRYDLDGDASMAKAVTGVVCYACRTASTLLLYQELMRKGVRWLVELVKDDYNETVHKKTEVVITLDFCIRNIEKTVKVYEKLMKVNLEAAELGEISDIHTKLLRLSSSQGTIESSLQDISSRLSPGGLLADTWAHQEGTHPRDRNVEKLQVLLNCITEIYYQFKKDKAERRLAYNEEQIHKFDKQKLYYHATKAMSHFSEECVRKYEAFKDKSEEWMRKMLHLRKQLLSLTNQCFDIEEEVSKYQDYTNELQETLPQKMLAASGGVKHAMAPIYPSSNTLVEMTLGMKKLKEEMEGVVKELAENNHILERFGSLTMDGGLRNVDCL
partner: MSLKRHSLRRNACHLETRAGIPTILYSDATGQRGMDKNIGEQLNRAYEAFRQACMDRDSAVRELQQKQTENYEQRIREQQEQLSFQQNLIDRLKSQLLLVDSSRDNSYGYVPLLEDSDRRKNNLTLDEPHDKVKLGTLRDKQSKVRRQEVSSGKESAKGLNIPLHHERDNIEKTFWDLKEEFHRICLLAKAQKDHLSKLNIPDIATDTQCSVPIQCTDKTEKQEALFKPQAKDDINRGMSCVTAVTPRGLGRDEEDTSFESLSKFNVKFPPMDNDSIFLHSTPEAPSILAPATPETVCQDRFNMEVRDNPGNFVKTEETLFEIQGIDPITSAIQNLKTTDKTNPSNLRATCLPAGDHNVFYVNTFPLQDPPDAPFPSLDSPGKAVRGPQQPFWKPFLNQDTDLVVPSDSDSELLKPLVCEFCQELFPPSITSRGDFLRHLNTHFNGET

The variants in the assay derive from B1. The note with it: with tank_mouse Tank.
In the case of S172A, the “effect of a mutation on the interaction” value is “decreasing interaction”.

Values taken from IntAct's records for PubMed 18583960.
